From the Human Domainome abundance scans (Beltran et al. 2025)
± gives the uncertainty stated by the source.

B1: Apoptosis-associated speck-like protein containing a CARD, residues 114 to 194; numbered along this chain, Q9ULZ3 (parent)
chain: FIDQHRAALIARVTNVEWLLDALYGKVLTDEQYQAVRAEPTNPSKMRKLFSFTPAWNWTCKDLLLQALRESQSYLVEDLER
B2: POU domain, class 4, transcription factor 3, residues 185 to 256; numbered along this chain, Q15319 (parent)
chain: RELEAFAERFKQRRIKLGVTQADVGAALANLKIPGVGSLSQSTICRFESLTLSHNNMIALKPVLQAWLEEAE

Variants of: B1
Test: abundance fitness (aPCA) (normalised: wild type 0, dead -1); higher = more abundant; growth selection in yeast, the domain comes from the species named
Settings: Homo sapiens

Row | Variant | abundance fitness
1 | FIRQHRAALIARVTNVEWLLDALYGKVLTDEQYQAVRAEPTNPSKMRKLFSFTPAWNWTCKDLLLQALRESQSYLVEDLER [D3R] | -0.544 ± 0.095
2 | FIYQHRAALIARVTNVEWLLDALYGKVLTDEQYQAVRAEPTNPSKMRKLFSFTPAWNWTCKDLLLQALRESQSYLVEDLER [D3Y] | -0.794 ± 0.2

Variants of: B2
Test: as above
Settings: Homo sapiens

Row | Variant | abundance fitness
3 | RELEAFAERFKQRRIKLGVTQADVGAALANLKIPGVGSLSQSTICRFESLTLSHNNMIALKPVLQAWLEWAE [E70W] | -0.29 ± 0.038
4 | RELEALAERFKQRRIKLGVTQADVGAALANLKIPGVGSLSQSTICRFESLTLSHNNMIALKPVLQAWLEEAE [F6L] | -0.221 ± 0.25
5 | RELEAVAERFKQRRIKLGVTQADVGAALANLKIPGVGSLSQSTICRFESLTLSHNNMIALKPVLQAWLEEAE [F6V] | -0.701 ± 0.17
6 | RELEAFAERFKQRRIKLQVTQADVGAALANLKIPGVGSLSQSTICRFESLTLSHNNMIALKPVLQAWLEEAE [G18Q] | -0.193 ± 0.12
7 | RELEAFAERFKQRRIKLGVTQADVGAALANLKIPGVGSLSQSTICRFESLTLSHNDMIALKPVLQAWLEEAE [N56D] | -0.355 ± 0.41
8 | RELEAFAERFKQRRIKLGVTQADVGAALANLKIPGVVSLSQSTICRFESLTLSHNNMIALKPVLQAWLEEAE [G37V] | -0.039 ± 0.074
9 | RELEAFAERFKQRRIKLGVTQADVGAALANLKIPGVGSLSQSTICRFESLTLSHNNMIALKPVCQAWLEEAE [L64C] | -0.717 ± 0.084
10 | RELEAFAERFKQRRIKLGVTQADVGAALANLKIPGVGSLSQSTICRFESLTLSHNNRIALKPVLQAWLEEAE [M57R] | -0.524 ± 0.089
11 | RELEAFAERFKQRRIKLGVTQADVGAALANLKIPGVGSLSQSTICRWESLTLSHNNMIALKPVLQAWLEEAE [F47W] | -0.508 ± 0.066
12 | RELEAFAERFKQRRIKLGVTQADVGAALANLKIPGVGSLSQSTICRQESLTLSHNNMIALKPVLQAWLEEAE [F47Q] | -0.875 ± 0.13
13 | RELEAFAERFKQRRIKLGVTQADVGAALANLKILGVGSLSQSTICRFESLTLSHNNMIALKPVLQAWLEEAE [P34L] | -0.386 ± 0.067
14 | RELEAFAERFKQRRIKLGVTQADVGAALANLKIPGVGILSQSTICRFESLTLSHNNMIALKPVLQAWLEEAE [S38I] | -0.017 ± 0.042
15 | RELEAFAERFKQRRIKLGVTQADVGAALANLKIPGVGYLSQSTICRFESLTLSHNNMIALKPVLQAWLEEAE [S38Y] | -0.055 ± 0.051
16 | RELEAFAECFKQRRIKLGVTQADVGAALANLKIPGVGSLSQSTICRFESLTLSHNNMIALKPVLQAWLEEAE [R9C] | -0.141 ± 0.1
17 | RELEAFAERFKQRRIKLGVTHADVGAALANLKIPGVGSLSQSTICRFESLTLSHNNMIALKPVLQAWLEEAE [Q21H] | 0.294 ± 0.16
18 | RELEAFAERFKQRRIILGVTQADVGAALANLKIPGVGSLSQSTICRFESLTLSHNNMIALKPVLQAWLEEAE [K16I] | -0.192 ± 0.1
19 | RELEAFAERFKQRRIDLGVTQADVGAALANLKIPGVGSLSQSTICRFESLTLSHNNMIALKPVLQAWLEEAE [K16D] | -0.132 ± 0.32

Row | Variant | abundance fitness
20 | RELEAFAERFKQRRIKLGVTQADVGAALANLKIPGVGSLSQSTICRFEELTLSHNNMIALKPVLQAWLEEAE [S49E] | 0.102 ± 0.071
21 | RELEAFAERFKQRRIKLGVTQADVGAALANLKIPGVGSLSQSTICRFESLWLSHNNMIALKPVLQAWLEEAE [T51W] | -0.406 ± 0.036
22 | RELEAFAERFKQRRIKLGVTQLDVGAALANLKIPGVGSLSQSTICRFESLTLSHNNMIALKPVLQAWLEEAE [A22L] | -0.265 ± 0.033
23 | RELEAFAERFKQRRIKLGVTQADLGAALANLKIPGVGSLSQSTICRFESLTLSHNNMIALKPVLQAWLEEAE [V24L] | -0.137 ± 0.024
24 | RELEAFAERFKQRRIKLGVTQADVGAALANLKIPGVGSLSQSTICRFESLTLSHNNMIALKPKLQAWLEEAE [V63K] | -0.35 ± 0.34
25 | RELEAFAERFKQRRIKLGVTQADVGAALANLKIPGVGSLSQSTICQFESLTLSHNNMIALKPVLQAWLEEAE [R46Q] | -0.011 ± 0.077
26 | RELEAFAERFKQRRIKLGVTQADVGAALANLKIPGVGSLSQSTICRFESLTLSHNNMIALKPVLQAWLEENE [A71N] | -0.032 ± 0.036
27 | RELEAFAERFKQRRIKLGVTQADVGACLANLKIPGVGSLSQSTICRFESLTLSHNNMIALKPVLQAWLEEAE [A27C] | -0.266 ± 0.076
28 | RELEAFAERFKQRRIKLGVTQADVGAALANLKIPGVGSRSQSTICRFESLTLSHNNMIALKPVLQAWLEEAE [L39R] | -0.606 ± 0.15
29 | RELEAFAERFKQRRIKLGVTQADVGAALANLKIPGVGSVSQSTICRFESLTLSHNNMIALKPVLQAWLEEAE [L39V] | 0.034 ± 0.15
30 | RELEAFAERFKQRRIKLGVTQADVGAALANNKIPGVGSLSQSTICRFESLTLSHNNMIALKPVLQAWLEEAE [L31N] | -0.565 ± 0.3
31 | RELEAFAERFKQRRIKLGVTQADVGNALANLKIPGVGSLSQSTICRFESLTLSHNNMIALKPVLQAWLEEAE [A26N] | -0.041 ± 0.053
32 | RELEAFAERFKQRRIKLGVTQADVGAALANLKIPGLGSLSQSTICRFESLTLSHNNMIALKPVLQAWLEEAE [V36L] | -0.011 ± 0.043
33 | RELEAFAERFKQRRIKLGVTQADVGAALANLKIPGSGSLSQSTICRFESLTLSHNNMIALKPVLQAWLEEAE [V36S] | -0.077 ± 0.059
34 | RELEAFAERFKQRRIKLGVTQADVGAALANLKIPGVGSLSQQTICRFESLTLSHNNMIALKPVLQAWLEEAE [S42Q] | 0.017 ± 0.07
35 | RELEAFAERFKQRRIKLGVTQADVGAALANLKIPNVGSLSQSTICRFESLTLSHNNMIALKPVLQAWLEEAE [G35N] | -0.121 ± 0.052
36 | RELEAFAERFKQRRIKLGHTQADVGAALANLKIPGVGSLSQSTICRFESLTLSHNNMIALKPVLQAWLEEAE [V19H] | 0.007 ± 0.054
